Source: patent EP4036575A1 (Yeda Research and Development Co. Ltd, dated 2022)

Molecular target: T1, mouse recombinant His-calmodulin (mouse, UniProt P0DP26 1-149)
T1 construct: also called His-CaM; His-tagged calmodulin
Assay: SPR (Biacore), His-CaM immobilised on CM5, analyte preincubated with 0.3 mM CaCl2

B1: M13 peptide, the binding fragment (26 aa peptide) of the skeletal muscle myosin light chain kinase (sk-MLCK) (peptide)
peptide: KRRWKKNFIAVSAANRFKKISSSGAL
Question: How did the Kd turn out when B1 was run?
Answer: 8.8 nM
